In the MegaScale stability set (Tsuboyama et al. 2023):

B1: HHH_rd1_0493 (parent)
chain: RDEDEKEKIKEALKRGNEDKAKEIAKRANVSPEEYERLRKEAE

Variants of: B1
Test: folding stability dG (cDNA display proteolysis); higher = more stable
Conditions: PBS, room temperature

Folding stability dG [kcal/mol]: each site, then its substitutions
G16: N 1.91, W 0.968, L 1.39, K 1.73, Q 1.56, M 1.46, E 1.19, R 1.97, T 0.598, A 1.67, H 2.04, V 0.445, S 1.29, I 0.476, D 1.47, P 0.767, C 1.76, F 1.55, Y 0.998
K14: H 2.28, P 0.417, V 2.33, M 2.79, G 1.98, F 1.8, A 2.53, R 3.32, Q 2.3, N 1.81, D 1.1, Y 1.97, E 1.75, W 1.9, T 2.07, I 2.67, C 2.24, L 2.67, S 2.36
E18: N 2.29, S 2.47, R 2.15, G 2.06, I 3.25, D 2.47, H 2.94, Q 2.54, T 2.84, W 2.62, L 2.86, F 3.24, C 2.58, P 2.48, Y 3.21, A 2.59, V 3.19, M 2.74, K 2.25
E11: M 2.67, S 2.58, A 2.82, F 1.56, W 1.91, V 2.04, G 2.34, R 2.54, Y 1.67, K 2.24, T 2.29, H 2.38, I 2.42, D 2.96, N 2.88, C 2.99, Q 2.83, L 2.71, P 0.82
K20: G 2.5, F 2.98, I 3.16, L 4.31, W 3.02, Y 3.13, H 2.87, R 3, E 3.82, P 0.93, D 2.85, Q 3.19, N 2.27, S 2.6, V 3.24, M 3.37, T 2.76, A 3.16
R15: K 2.91, N 3.17, V 2.83, L 3.09, Q 3.39, A 3.36, T 2.81, W 2.81, G 2.71, D 2.85, Y 2.69, I 2.77, H 3, E 3.24, C 2.31, P 0.627, S 3.1, F 2.62, M 3.21
D19: V 2.99, H 2.85, I 2.95, A 3.31, Y 2.5, S 2.93, R 2.97, Q 3.15, G 2.76, T 3.05, M 3.04, K 3.07, W 2.72, L 2.98, F 2.6, N 2.86, E 3.28, P 2.64
K22: E 2.26, C 1.79, F 2.31, G 1.64, D 1.73, A 2.61
K10: G 0.528, P 0.064, T 1.7, W 1.57, R 2.49, C 2.32, D 0.644, I 2.8, S 1.27, Q 0.854, H 0.938, L 2.79, V 2.28, A 1.09, Y 2.01, E 0.847, N 0.92, F 2.11, M 2.02
E5: T 3.37, I 4.07, R 2.1, L 3.6, Q 2.87, N 2.71, M 3.33, D 3, K 2.24, V 4.07, H 3.3, S 3.02, P 3.46, A 3.7, F 4.03, W 4.45, C 2.42, G 2.08, Y 4.39
K6: W 3.32, C 1.8, H 3.07, R 3.3, V 2.74, L 3.25, A 2.57, I 3.24, N 2.53, Q 2.39, T 2.61, P 1.72, G 2.46, F 3.23, M 3.11, E 2.27, D 1.85, Y 3.4, S 2.56
I9: P 0.579, L 2.28, A 0.796, E 0.589, H 0.471, K 0.396, M 1.48, W 0.614, Y 0.577, C 1.26, Q 0.476, R 0.406, N 0.856, G 0.603, T 0.61, V 2.09, S 0.587, D 0.479, F 0.774
K8: H 2.42, S 2.78, I 2.1, A 3.29, Y 2.09, D 2.25, N 2.55, W 2.44, T 2.27, V 1.94, M 3.08, L 3.06, Q 3.15, C 2.37, R 3, E 2.66, P 0.847, F 2.12, G 2.34
E7: W 3.29, Q 3.13, R 3.15, T 3, P 1.58, Y 2.85, H 2.94, L 3.09, I 3.06, D 2.7, V 2.97, G 2.62, S 2.92, N 2.96, A 3.08, F 3, M 3.12, K 3.1
N17: Q 3.2, M 2.94, T 1.63, D 3.78, H 3.01, L 3.13, V 1.45, W 3.09, F 2.98, K 2.41, R 2.68, E 3.38, S 2.19, I 1.54, C 1.99, P 1.03, G 1.46, A 2.65, Y 2.75
A12: W 3.01, G 0.656, E 2.85, I 1.24, R 0.882, M 2.86, Q 2.69, S 2.15, H 2.85, K 0.896, L 3.02, C 1.94, F 2.87, P 0.229, Y 2.88, N 2.1, V 1.06, D 0.746, T 1.43
D4: V 2.88, Y 2.9, T 2.91, S 3.03, W 3.02, R 2.88, P 2.48, Q 2.88
L13: R 0.401, K 0.273, Y 0.88, I 2.84, A 0.528, G 0.235, N 0.415, H 0.865, D 0.379, P 0.435, V 1.58, W 1.14, S 0.332, M 2.49, C 1.37, Q 0.615, T 0.471, E 0.376, F 2.85
A21: F 0.6, Q 0.364, I 0.511, S 1.11, N 0.483, Y 0.355, M 0.506, P 0.448, V 0.589, T 0.424, R 0.336, C 1.29, G 1.13, W 0.514, D 0.52, L 0.541, K 0.184, E 0.568, H 0.313
